Reference: US10233241B2 (priority 2014, dated 2019)

B1: XA8727: Mor1-specific VHH, SEQ ID NO: 6, Profile III, intracellular binder (protein, listed as Lama glama)
VHH: QVQLVESGGGLVQAGGSLRLSCAASGFTFDDYAIAWFRQAPGKEREGVSCISSSDGSTYYADSVKGRFTISNDNAKNTVYLQMNSLKPEDTAVYYCAADLSRSCGRGYRYLEVWGQGTQVTVSSAAAHHHHHHGAAEQKLISEEDLNGAA
B2: bivalent XA8635: genetic head to tail fusion of XA8635, separated by a 9GS linker, SEQ ID NO: 49 (protein)
chain: QVQLVESGGGLVQAGGSLRLSCAASGSISSISTMGWYRQAPGNERELVAAITSGGSTNYADSVKGRFTISRDNAKNTVYLQMNSLKPEDTAVYYCNFKYYSGSYFYKSEYDYWGQGTQVTVSSGGGGSGGGSQVQLQESGGGLVQAGGSLRLSCAASGSISSISTMGWYRQAPGNERELVAAITSGGSTNYADSVKGRFTISRDNAKNTVYLQMNSLKPEDTAVYYCNFKYYSGSYFYKSEYDYWGQGTQVTVSSAAAEQKLISEEDLNGAAHHHHHH
B3: XA8633: Mor1-specific VHH, SEQ ID NO: 1, Profile I, candidate G-protein mimicking, active state stabilizing (protein, listed as Lama glama)
VHH: QVQLVESGGGLVRPGGSRRLSCVDSERTSYPMGWFRRAPGKEREFVASITWSGIDPTYADSVADRFTISRDVANNTLYLQMNSLKHEDTAVYYCAARAPVGQSSSPYDYDYWGQGTQVTVSSAAAHHHHHHGAAEQKLISEEDLNGAA
B4: XA8643: Mor1-specific VHH, SEQ ID NO: 4, Profile I (protein, listed as Lama glama)
VHH: QVQLVESGGGLVRPGGSLRLSCVDSERTSYPMGWFRRAPGKEREFVASITWSGIDPTYADSVADRFTISRDVANNTLYLQMNSLKHEDTAVYYCAARAPVGQSSSPYDYDYWGQGTQVTVSSAAAHHHHHHGAAEQKLISEEDLNGAA
B5: XA8641: Mor1-specific VHH, SEQ ID NO: 3, Profile I (protein, listed as Lama glama)
VHH: QVQLVESGGGLVRPGGSLRLSCVDSGRTSYPMGWFRRAPGKEREFVASITWSGIDPTYADSVADRFTISRDVANNTLYLQMNSLKHEDTAVYYCAARAPVGQSSSPYDYDYWGQGTQVTVSSAAAHHHHHHGAAEQKLISEEDLNGAA
B6: XA8639: Mor1-specific VHH, SEQ ID NO: 2, Profile I, G-protein mimetic (protein, listed as Lama glama)
VHH: QVQLVESGGGLVRPGGSLRLSCVDSERTSYPMGWFRRAPGKEREFVASITWSGIDPTYADSVADRFTTSRDVANNTLYLQMNSLKHEDTAVYYCAARAPVGQSSSPYDYDYWGQGTQVTVSSAAAHHHHHHGAAEQKLISEEDLNGAA
B7: XA9644: Profile III VHH of a new sequence family, SEQ ID NO: 74 (protein, listed as Lama glama)
VHH: QVQLVESGGGLVRPGGSLRLSCVDSERIFSISAMGWYRQAPGKQRELVATITSGGTTNYADSVKGRFTISGDTAKNMVYLQMSSLKPEDTAVYYCAADMEVWDYTDGDDDDYWGQGTQVTVSSAAAHHHHHHGAAEQKLISEEDLNGAA
B8: XA8635: Mor1-specific VHH, SEQ ID NO: 5, Profile II, binds extracellular part and orthosteric pocket (protein, listed as Lama glama)
VHH: QVQLVESGGGLVQAGGSLRLSCAASGSISSISTMGWYRQAPGNERELVAAITSGGSTNYADSVKGRFTISRDNAKNTVYLQMNSLKPEDTAVYYCNFKYYSGSYFYKSEYDYWGQGTQVTVSSAAAHHHHHHGAAEQKLISEEDLNGAA

Legend:
[1] = system: β-arrestin1 or β-arrestin2; conditions: cell culture assays; cited from earlier work
[2] = system: inflammatory pain model in rat; conditions: cited from earlier work
Delta mMor1 [3] = target: T1, Delta mMor1 (Mus musculus, UniProt P42866, INS358LEVLFQGP/INS51ENLYFQ); test: Flow cytometry binding of VHHs to Delta mMor1/Sf9 cells with or without Mor1 ligand; conditions: for Side of Mor1 bound (intact versus permeable Sf9 cells, Topro3 gating) / Flow cytometry binding profile on Delta mMor1/Sf9 cells: periplasmic extracts; for Flow cytometry binding profile on Delta mMor1/Sf9 cells: no ligand, 20 μM Dmt1-Dalda or 20 μM naloxone, mock GPCR Sf9 as control
T1 construct: expressed in transfected cells; host or cells: Sf9 insect cells, baculovirus-infected (BestBac)

truncDelta mMor1 = target: T2, truncDelta mMor1 (Mus musculus, UniProt P42866); test: ELISA of VHH binding to truncDelta mMor1 reconstituted in liposomes; conditions: periplasmic extracts, 10 μM Dmt1-Dalda
T2 construct: N- and C-termini are removed by enzymatic proteolysis, resulting in truncDelta mMor1; TEV cleavage site ENLYFQ (after G51 of P42866) (internal); made in house; host or cells: Sf9 insect cells (baculovirus); purified and reconstituted into lipid vesicles

human Mor1 = target: T3, human Mor1 (Homo sapiens, UniProt P35372); test: Flow cytometry binding of mono- and bivalent XA8635 to Mor overexpressing CHO cells; conditions: for Binding to Mor overexpressing CHO cells vs parental non-transfected CHO cells: absence of any Mor1 ligand
T3 construct: expressed in transfected cells; host or cells: CHO cells
T3 sequence (P35372 whole entry): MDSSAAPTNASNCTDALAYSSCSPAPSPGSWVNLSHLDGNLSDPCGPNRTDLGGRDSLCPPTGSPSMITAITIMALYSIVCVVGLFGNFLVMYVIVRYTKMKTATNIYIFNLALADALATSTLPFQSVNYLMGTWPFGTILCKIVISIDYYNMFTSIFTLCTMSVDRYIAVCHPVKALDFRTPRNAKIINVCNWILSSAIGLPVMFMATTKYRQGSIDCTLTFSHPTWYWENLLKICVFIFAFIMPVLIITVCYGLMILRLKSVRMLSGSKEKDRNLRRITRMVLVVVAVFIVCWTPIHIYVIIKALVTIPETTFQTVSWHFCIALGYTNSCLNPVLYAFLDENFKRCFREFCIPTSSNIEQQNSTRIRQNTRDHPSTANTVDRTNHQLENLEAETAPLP

Mor1 [4] = target: T4, Mor1 (Mus musculus, UniProt P42866); type: binding
WT human Mor1 = target: T5, WT human Mor1 (Homo sapiens, UniProt P35372); test: Radioligand displacement by XA8635 on WT human hMor1/CHO membranes; type: binding; conditions: 5 μg WT human hMor1/CHO membranes, 1 nM radioligand, no agonist
T5 construct: purchased Perkin Elmer ES-542-M400UA; host or cells: CHO cells overexpressing wild-type human Mor1 (membranes)
T5 sequence (P35372 whole entry): as above
Method: (§1) A radioligand competition assay was performed as described in Example 6 with minor modifications: 5 μg of WT human hMor1/CHO membranes or 7 μg of Delta mMor1/Sf9 membranes were incubated with a concentration range of purified XA8635 and 1 nM of the radioligand (no agonist was added). The mixture was incubated for 1 hour at RT and after washing, filter bound radioligand was measured.

Delta mMor1 [5] = target: T1, Delta mMor1; test: Radioligand displacement by XA8635 on Delta mMor1/Sf9 membranes; type: binding; conditions: 7 μg Delta mMor1/Sf9 membranes, 1 nM radioligand, no agonist
Method: as §1

Mor1 [6] = target: T4, Mor1; test: Affinity of XA8635 for ligand-free Mor1; conditions: read-out: Ki of binding to the receptor

| Molecule | Side of Mor1 bound (intact versus permeable Sf9 cells, Topro3 gating) (Delta mMor1 [3]) | Flow cytometry binding profile on Delta mMor1/Sf9 cells (Delta mMor1 [3]) | Binding to truncDelta mMor1 liposomes in ELISA (truncDelta mMor1) | also measured |
| --- | --- | --- | --- | --- |
| COC(=O)[C@@H]1C[C@H](OC(=O)c2ccccc2)C(=O)[C@H]2[C@@]1(C)CC[C@H]1C(=O)O[C@H](c3ccoc3)C[C@]21C [herkinorin] | – | – | – | Recruitment of β-arrestin1 or β-arrestin2 [1]: does not recruit β-arrestin1 or β-arrestin2; Antinociception in morphine-tolerant rats ([2]; morphine-tolerant rats): produces antinociception in morphine-tolerant rats; Formalin-induced flinching ([2]; rat, 10 mg/kg, i.pl., reversed by naloxone): reduces formalin-induced flinching to the same degree as morphine; Antinociceptive tolerance ([2]; repeated treatment over a 5-day period): does not develop |
| B1 | intracellular part of Mor1 | Profile III | confirmed to bind Mor1 in ELISA | – |
| B2 | – | – | – | Increased fluorescence versus monovalent XA8635 (human Mor1; 1 μM): approximately 34%; Binding to Mor overexpressing CHO cells vs parental non-transfected CHO cells (human Mor1): dose-dependent specific binding |
| B3 | intracellular epitopes | Profile I | confirmed to bind Mor1 in ELISA | Fluorescence profile of purified VHH compared to the one obtained with periplasm (Delta mMor1 [3]; 1 μM purified VHH): identical fluorescence profile |
| B4 | intracellular epitopes | Profile I | confirmed to bind Mor1 in ELISA | – |
| B5 | intracellular epitopes | Profile I | confirmed to bind Mor1 in ELISA | – |
| B6 | intracellular epitopes | Profile I | confirmed to bind Mor1 in ELISA | Enhancement of affinity for BU72 (Mor1 [4]): 176 fold |
| B7 | – | Profile III | – | – |
| B8 | extracellular part of the receptor | Profile II | confirmed to bind Mor1 in ELISA | Fluorescence profile of purified VHH compared to the one obtained with periplasm (Delta mMor1 [3]; 1 μM purified VHH): identical fluorescence profile; Binding to Sf9 cells overexpressing Mor1 in presence of Mor1 ligand (agonist or antagonist) (Delta mMor1 [3]; 1 μM purified VHH, intact and permeable cells): loses its ability to specifically bind; Radioligand displacement (WT human Mor1): dose-dependent increase in radioligand displacement; Radioligand displacement (Delta mMor1 [5]): dose-dependent increase in radioligand displacement; Binding to Mor overexpressing CHO cells vs parental non-transfected CHO cells (human Mor1): dose-dependent specific binding; Ki (Mor1 [6]): ~12 nM |
